Experimental data published in patent US20250228943A1.

Molecular target: TGFβR2-IL18R redirector receptor
Experiment: cell-based or functional assay

TGFβR2-IL18R redirector receptor, sequence (chain, as listed by the source): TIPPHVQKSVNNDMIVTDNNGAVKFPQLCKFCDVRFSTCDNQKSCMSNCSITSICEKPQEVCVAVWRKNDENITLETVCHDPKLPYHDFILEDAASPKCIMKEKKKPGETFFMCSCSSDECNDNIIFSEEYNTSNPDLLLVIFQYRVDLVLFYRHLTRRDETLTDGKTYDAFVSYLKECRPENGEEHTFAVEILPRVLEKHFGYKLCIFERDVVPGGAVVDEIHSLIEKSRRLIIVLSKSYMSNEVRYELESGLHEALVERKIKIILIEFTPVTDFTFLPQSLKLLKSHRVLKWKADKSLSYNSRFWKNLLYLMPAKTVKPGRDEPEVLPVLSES

## TGFβ (ligand)
  percent CD69^+CD25^+ effector cells after five rounds of co-culture with TGFβ (flow cytometry): 61.6%
